{
  "source": "the RNAGym collection of RNA variant scans (doi:10.1073/pnas.2313332121)",
  "parents": {"B1": {"name": "TPR 5TU (parent)", "chain": "GGAUCUUCUCGAUCUAACAAAAAAGACAAAUCUGCCACAAAGCUUGAGAGCAUCUUCGGAUGCAGAGGCGGCAGCCUUCGGUGGCGCGAUAGCGCCAACGUUCUCAACUAUGACACGCAAAACGCGUGCUCCGUUGAAUGGAGUUUAUCAUG"}},
  "note": "Fewer inactive variants are shown than the library holds.",
  "data": [
    {"variants_of": "B1", "experiment": "polymerase ribozyme fitness, log enrichment relative to wild type (log ratio); higher = more active; in vitro selection for triplet polymerase activity", "how_it_was_run": "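Streptavidin-bead capture of gel-excised extended constructs, followed by RT-PCR, closed a single triplicate in vitro selection round. That round began by annealing PCR-built, transcribed mutant libraries of each subunit of a heterodimeric triplet polymerase ribozyme with a biotinylated primer, the partner subunit and triplets, then incubating them frozen at −7 °C. After Illumina sequencing of inputs and outputs, genotypes needed ≥10 input reads and ≥1 read per output. Fitness is the base-2 logarithm of genotype enrichment over wild-type enrichment, using inverse-variance-weighted replicate averages.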", "values": [
      {"variant": "A17G A23U U55G A66C", "polymerase ribozyme fitness (log ratio)": "≤ -4.2"},
      {"variant": "A16G G94U C95A U134G", "polymerase ribozyme fitness (log ratio)": -3.52},
      {"variant": "A16U A22G C57A U135A", "polymerase ribozyme fitness (log ratio)": -3.06},
      {"variant": "A16U G124U", "polymerase ribozyme fitness (log ratio)": -2.37},
      {"variant": "A17G A40U U55A U56A C103A A119G U134A", "polymerase ribozyme fitness (log ratio)": "≤ -4.2"},
      {"variant": "A16U C38U A91U C103A", "polymerase ribozyme fitness (log ratio)": "≤ -4.2"},
      {"variant": "A16G G50A A142C", "polymerase ribozyme fitness (log ratio)": -3.93},
      {"variant": "A16U A60C U61A A66C", "polymerase ribozyme fitness (log ratio)": "≤ -4.2"},
      {"variant": "A16G G80C G81A A97G U102C G136C C149U", "polymerase ribozyme fitness (log ratio)": "≤ -4.2"},
      {"variant": "A17G A37C A91G C99A A107G U139G G143U U148C", "polymerase ribozyme fitness (log ratio)": "≤ -4.2"},
      {"variant": "A16G A41C U55G A142C", "polymerase ribozyme fitness (log ratio)": -3.52},
      {"variant": "A16U C18G A21G A22U C51U U53G G68A G81C", "polymerase ribozyme fitness (log ratio)": "≤ -4.2"},
      {"variant": "A17C G59A A60C G81C C95U C116U", "polymerase ribozyme fitness (log ratio)": 0.238},
      {"variant": "A16G C57A G62A C96U", "polymerase ribozyme fitness (log ratio)": -1.89},
      {"variant": "A16U A19U", "polymerase ribozyme fitness (log ratio)": -2.39},
      {"variant": "A16G C27U A28G C43U U53A C57A U82G C93U G143C", "polymerase ribozyme fitness (log ratio)": "≤ -4.2"},
      {"variant": "A16G C43G C57U G84A C85A A91C U127C", "polymerase ribozyme fitness (log ratio)": "≤ -4.2"},
      {"variant": "A16G A20U C118U A137U", "polymerase ribozyme fitness (log ratio)": "≤ -4.2"},
      {"variant": "A16G U78A C93G", "polymerase ribozyme fitness (log ratio)": "≤ -4.2"},
      {"variant": "A16U A64U A66U G94A C108U A150G", "polymerase ribozyme fitness (log ratio)": "≤ -4.2"},
      {"variant": "A16U A52U G74A C87A A119U U148G", "polymerase ribozyme fitness (log ratio)": "≤ -4.2"},
      {"variant": "A16U A22U G117A C132A U151G", "polymerase ribozyme fitness (log ratio)": "≤ -4.2"},
      {"variant": "A16U U31A G83A C105U", "polymerase ribozyme fitness (log ratio)": -1.17},
      {"variant": "A16G A23U C72A C87A C93U G126A", "polymerase ribozyme fitness (log ratio)": "≤ -4.2"},
      {"variant": "A16U U53A G80U C85U G152U", "polymerase ribozyme fitness (log ratio)": "≤ -4.2"},
      {"variant": "A17C A21U G25U G84A", "polymerase ribozyme fitness (log ratio)": -2.95},
      {"variant": "A17C A40C G83C U109G", "polymerase ribozyme fitness (log ratio)": -3.6},
      {"variant": "A17C A47U G58A G83U G94A G126U", "polymerase ribozyme fitness (log ratio)": "≤ -4.2"},
      {"variant": "A16U C125A", "polymerase ribozyme fitness (log ratio)": -2.06},
      {"variant": "A17G A49U G71C C79A A106U", "polymerase ribozyme fitness (log ratio)": "≤ -4.2"},
      {"variant": "A17C A21U C51U G59C C95U A106U G136C U151G", "polymerase ribozyme fitness (log ratio)": "≤ -4.2"},
      {"variant": "A16G C43U C79U C132U", "polymerase ribozyme fitness (log ratio)": "≤ -4.2"},
      {"variant": "A16G G46U", "polymerase ribozyme fitness (log ratio)": -1.19},
      {"variant": "A16U C96U", "polymerase ribozyme fitness (log ratio)": -2.07},
      {"variant": "A16G C27U", "polymerase ribozyme fitness (log ratio)": -2},
      {"variant": "A16U U33A G42A C93U G140A", "polymerase ribozyme fitness (log ratio)": "≤ -4.2"},
      {"variant": "A16U U56A C96A", "polymerase ribozyme fitness (log ratio)": -3.23},
      {"variant": "A17C G133A", "polymerase ribozyme fitness (log ratio)": -3.15},
      {"variant": "A16U A30C A47G G58A U111A", "polymerase ribozyme fitness (log ratio)": "≤ -4.2"},
      {"variant": "A16G C35G U53A C57U G84U C105G A150U", "polymerase ribozyme fitness (log ratio)": "≤ -4.2"},
      {"variant": "A16G G86A", "polymerase ribozyme fitness (log ratio)": -0.891},
      {"variant": "A16U A30C U61A C96U G140U", "polymerase ribozyme fitness (log ratio)": "≤ -4.2"},
      {"variant": "A17C C38A A47G G92C", "polymerase ribozyme fitness (log ratio)": -0.622},
      {"variant": "A17C C35U G74A C76A U78G", "polymerase ribozyme fitness (log ratio)": "≤ -4.2"},
      {"variant": "A16U C18U U44G U82A C93U C99A A106G A142C", "polymerase ribozyme fitness (log ratio)": "≤ -4.2"},
      {"variant": "A16U A29G A30U U53A U55A G62C U77G C116U", "polymerase ribozyme fitness (log ratio)": "≤ -4.2"},
      {"variant": "A16U G88C", "polymerase ribozyme fitness (log ratio)": "≤ -4.2"},
      {"variant": "A17C A20C U53G G84A", "polymerase ribozyme fitness (log ratio)": -2.28},
      {"variant": "A17C C27A A52G A60U C69U C85A C95G C125A", "polymerase ribozyme fitness (log ratio)": "≤ -4.2"},
      {"variant": "A17C A39U G58A C95A G141C", "polymerase ribozyme fitness (log ratio)": -2.82},
      {"variant": "A16G A23C U55G G88A C108A U111C A122C", "polymerase ribozyme fitness (log ratio)": "≤ -4.2"},
      {"variant": "A16G A20U G46U A60G A138C", "polymerase ribozyme fitness (log ratio)": "≤ -4.2"},
      {"variant": "A17C A110U", "polymerase ribozyme fitness (log ratio)": -4},
      {"variant": "A16G A22U G94A", "polymerase ribozyme fitness (log ratio)": -0.896},
      {"variant": "A16U C54G A97C C116G G124U A137C", "polymerase ribozyme fitness (log ratio)": "≤ -4.2"},
      {"variant": "A16U G25C A52C C96U", "polymerase ribozyme fitness (log ratio)": -4.11},
      {"variant": "A16G C43A U53C G70A A73G", "polymerase ribozyme fitness (log ratio)": "≤ -4.2"},
      {"variant": "A16U A17C U44C U56A C76U G88U C114A", "polymerase ribozyme fitness (log ratio)": "≤ -4.2"},
      {"variant": "A17C A37C A52U G83U", "polymerase ribozyme fitness (log ratio)": -3.08},
      {"variant": "A17C G68C C85G C125U G143C", "polymerase ribozyme fitness (log ratio)": "≤ -4.2"},
      {"variant": "A16U C57A", "polymerase ribozyme fitness (log ratio)": -1.96},
      {"variant": "A16U G58A C93A", "polymerase ribozyme fitness (log ratio)": -3.46},
      {"variant": "A16G A49U C63U C72U G88C G141C", "polymerase ribozyme fitness (log ratio)": "≤ -4.2"},
      {"variant": "A16G A39U C43G G50U G67C U109A U134A U139C", "polymerase ribozyme fitness (log ratio)": "≤ -4.2"},
      {"variant": "A16U A19U A40G", "polymerase ribozyme fitness (log ratio)": "≤ -4.2"},
      {"variant": "A16U G68A C87A G94C G141A", "polymerase ribozyme fitness (log ratio)": "≤ -4.2"},
      {"variant": "A16G G83U U139G", "polymerase ribozyme fitness (log ratio)": -1.17},
      {"variant": "A17G A29C C32G G48C", "polymerase ribozyme fitness (log ratio)": "≤ -4.2"},
      {"variant": "A17C U33C G42C C51A U53A U139G A142G", "polymerase ribozyme fitness (log ratio)": "≤ -4.2"},
      {"variant": "A17C G92C", "polymerase ribozyme fitness (log ratio)": 0.012},
      {"variant": "A16U U56A G62A U82G C85U A142G", "polymerase ribozyme fitness (log ratio)": -4.16},
      {"variant": "A16G C54U C76A C93U A97G C103U C123U G128C", "polymerase ribozyme fitness (log ratio)": "≤ -4.2"},
      {"variant": "A16U G58U", "polymerase ribozyme fitness (log ratio)": -2.34},
      {"variant": "A16G C18U C27U A28U A40C G50C U56A G84C C125A G143A U146G", "polymerase ribozyme fitness (log ratio)": "≤ -4.2"},
      {"variant": "A17G A29U G67U G100A C123G C132G", "polymerase ribozyme fitness (log ratio)": "≤ -4.2"},
      {"variant": "A17C A26G A41C C54A C72U C87A G100C G143U", "polymerase ribozyme fitness (log ratio)": "≤ -4.2"},
      {"variant": "A17C C125G G126A", "polymerase ribozyme fitness (log ratio)": -3.65},
      {"variant": "A17C G62U C93G", "polymerase ribozyme fitness (log ratio)": -3.31},
      {"variant": "A17C A26C C87U", "polymerase ribozyme fitness (log ratio)": -1.83},
      {"variant": "A16G C43A U55A G80C G117U G133C", "polymerase ribozyme fitness (log ratio)": "≤ -4.2"},
      {"variant": "A17C U102A", "polymerase ribozyme fitness (log ratio)": -0.663},
      {"variant": "A16G C54U", "polymerase ribozyme fitness (log ratio)": -0.601},
      {"variant": "A16G G126A G143A", "polymerase ribozyme fitness (log ratio)": -3.34},
      {"variant": "A16G A37C G46A G50C C87A G92A A138C A147U", "polymerase ribozyme fitness (log ratio)": "≤ -4.2"}
    ]}
  ]
}
